Source: patent US20070004636A1, “Method of degrading transcriptional factors of saccharometabolism-associated gene, method for inhibiting the degradation, and agent for inhibiting degradation and degradation inhibitor” (priority 2002, published 2007)

Assays:
human HNF-1α = test: in vitro protein degradation test of HNF-1α by calpain (Western blotting); format: biochemical; conditions: 1 hour at 37° C.
Procedure: Using the HNF-1α expression plasmid, in vitro synthesis of HNF-1α protein was carried out using the TNT T7 Quick Coupled Transcription/Translation System. That is, the HNF-1α expression plasmid was mixed with TNT T7 Quick Master Mix, and then incubated for 1.5 hours at 30° C. in the presence of methionine to synthesize HNF-1α. Thereafter, immunoprecipitation was conducted by adding anti-Xpress antibody to the synthesized HNF-1α, mixing by inversion for 1 hour at 4° C., and then adding Protein G Sepharose 4 Fast Flow and mixing by inversion for an additional 1 hour at 4° C. Subsequently, Protein G Sepharose was collected by centrifugation and washed 3 times with washing buffer (50 mM Tris-HCl, pH 7.5/150 mM NaCl/0.2% Nonidet P-40), followed by rinsing with 200 mM Tris-HCl (pH 7.8) to obtain the HNF-1α sample as 20% slurry (hereunder, referred to as “HNF-1α slurry”).
Protein degradation tests were carried out in vitro by adding μ-calpain or m-calpain to the HNF-1α slurry, and incubating for 1 hour at 37° C. in the presence of 200 mM Tris-HCl (pH 7.8)/1 mM DTT/6 mM CaCl2. The final concentrations of the respective calpain in the reaction system were as follows: 50 units/mL of human μ-calpain; 50 μg/mL of rabbit m-calpain as a protein concentration; and 59 units/mL of rat m-calpain. For a control experiment, an HNF-1α slurry was incubated without the addition of calpain in a similar manner in the presence of calcium. Further, to test for protein degradation in the absence of calcium, a sample was prepared by adding 10 mM of EDTA instead of 6 mM of CaCl2 and was incubated in the same manner. The samples after incubation were added to an equal volume of 2×SDS sample buffer, heated for 5 minutes, and then subjected to 5-20% SDS-PAGE for separation. Thereafter, Western blotting was carried out to detect HNF-1α using anti-Omni/M21 antibody (Santa Cruz Biotechnology, Inc.), which recognizes a His-Xpress region, and anti-HNF-1α antibody/HNF-1α (C-19) antibody (Santa Cruz Biotechnology, Inc.). An ECL Western blotting detection kit was used for conducting the detection.
In-vitro protein degradation tests were carried out in the same manner as in Example 7, but the lysate of sf-9 cells that coexpressed m-calpain with calpain small subunit 1 was used as m-calpain. The final concentration of the lysate of the sf-9 cells that expressed these proteins in the reaction system was 1.75 mg/mL as a protein concentration. The final concentration of rat m-calpain in the reaction system was 59 units/mL. Detection of HNF-1α was performed in the same manner as Example 7, but only anti-HNF-1α antibody/HNF-1α (C-19) antibody was used.

human HNF-4α = target: T1, human HNF-4α (Homo sapiens, UniProt P41235); test: binding test by intracellular coexpression/immunoprecipitation in HEK293T cells; format: cell-based; conditions: FLAG-tagged m-calpain coexpressed with Xpress-tagged HNF-4α in HEK293T cells
T1 construct: expressed in transfected cells; host or cells: HEK293T
T1 sequence (P41235 10-474): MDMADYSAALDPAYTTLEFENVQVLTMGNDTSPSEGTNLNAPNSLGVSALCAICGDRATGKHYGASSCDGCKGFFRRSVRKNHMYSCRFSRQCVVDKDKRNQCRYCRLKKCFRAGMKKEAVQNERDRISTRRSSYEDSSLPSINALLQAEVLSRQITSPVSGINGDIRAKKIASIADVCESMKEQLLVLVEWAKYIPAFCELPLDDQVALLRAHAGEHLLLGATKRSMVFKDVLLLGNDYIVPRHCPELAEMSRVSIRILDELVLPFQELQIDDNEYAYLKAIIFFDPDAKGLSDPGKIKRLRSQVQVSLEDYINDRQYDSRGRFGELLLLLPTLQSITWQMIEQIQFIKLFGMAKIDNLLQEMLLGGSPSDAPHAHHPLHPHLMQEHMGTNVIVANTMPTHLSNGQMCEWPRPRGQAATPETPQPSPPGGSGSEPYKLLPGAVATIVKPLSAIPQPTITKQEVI
Procedure: First, the m-calpain gene was co-transfected with the HNF-4α gene into HEK293T cells. More specifically, after culturing a total number of 1.3×10^6 HEK293T cells for 4 hours at 37° C. in the presence of 5% CO2 (Petri dish with 60 mm diameter), 5 μg of HNF4α expression plasmid or pcDNA 3.1/His plasmid as a negative control was transfected thereto together with 5 μg of m-calpain expression plasmid using the FuGENE 6 Transfection Reagent (Roche Applied Science). After two days culturing, the cells were washed with cold phosphate buffered saline (−) (hereunder, referred to as “PBS(−)”), suspended in 500 μl of cell lysis buffer (20 mM HEPES, pH 7.5/150 mM NaCl/1 mM EDTA/1% Triton X-100/1 mM phenylmethyl sulfonyl fluoride (PMSF)), and left to stand on ice for 20 mins. Thereafter, the cells were subjected to centrifugation at 15,000 rpm for 20 min at 4° C. to collect the supernatant for use as cell lysate. Subsequently, the collected lysate was added to 18 μl of Protein G Sepharose 4 Fast Flow (Amersham Pharmacia Biotech) that was pretreated with TBS (pH 8.0) containing 0.1% bovine serum albumin, and mixed by inversion for 2 hours at 4° C., followed by centrifugation to collect the supernatant. 0.6 μg of anti-HNF-4α antibody/HNF-4α (C-19) antibody was added to the collected supernatant, and mixed by inversion for 1 hour at 4° C. […]

B1: human m-calpain: lysate of sf-9 insect cells coexpressing human m-calpain with calpain small subunit 1; FLAG-tagged, expressed in HEK293T cells, in Example 3 (protein, UniProt P17655 20-700; P04632 1-268, looked up)
Calpain-2 catalytic subunit: SHDRAIKYLNQDYEALRNECLEAGTLFQDPSFPAIPSALGFKELGPYSSKTRGIEWKRPTEICADPQFIIGGATRTDICQGALGDCWLLAAIASLTLNEEILARVVPLNQSFQENYAGIFHFQFWQYGEWVEVVVDDRLPTKDGELLFVHSAEGSEFWSALLEKAYAKINGCYEALSGGATTEGFEDFTGGIAEWYELKKPPPNLFKIIQKALQKGSLLGCSIDITSAADSEAITFQKLVKGHAYSVTGAEEVESNGSLQKLIRIRNPWGEVEWTGRWNDNCPSWNTIDPEERERLTRRHEDGEFWMSFSDFLRHYSRLEICNLTPDTLTSDTYKKWKLTKMDGNWRRGSTAGGCRNYPNTFWMNPQYLIKLEEEDEDEEDGESGCTFLVGLIQKHRRRQRKMGEDMHTIGFGIYEVPEELSGQTNIHLSKNFFLTNRARERSDTFINLREVLNRFKLPPGEYILVPSTFEPNKDGDFCIRVFSEKKADYQAVDDEIEANLEEFDISEDDIDDGFRRLFAQLAGEDAEISAFELQTILRRVLAKRQDIKSDGFSIETCKIMVDMLDSDGSGKLGLKEFYILWTKIQKYQKIYREIDVDRSGTMNSYEMRKALEEAGFKMPCQLHQVIVARFADDQLIIDFDNFVRCLVRLETLFKIFKQLDPENTGTIELDLISWLCFSVL
Calpain small subunit 1: MFLVNSFLKGGGGGGGGGGGLGGGLGNVLGGLISGAGGGGGGGGGGGGGGGGGGGGTAMRILGGVISAISEAAAQYNPEPPPPRTHYSNIEANESEEVRQFRRLFAQLAGDDMEVSATELMNILNKVVTRHPDLKTDGFGIDTCRSMVAVMDSDTTGKLGFEEFKYLWNNIKRWQAIYKQFDTDRSGTICSSELPGAFEAAGFHLNEHLYNMIIRRYSDESGNMDFDNFISCLVRLDAMFRAFKSLDKDGTGQIQVNIQEWLQLTMYS
modifications: FLAG tag
degradation of HNF-1α (human HNF-1α; in the absence of calcium (10 mM EDTA instead of CaCl2)): not observed | degradation of HNF-1α (human HNF-1α; in the presence of calcium (6 mM CaCl2), Western blotting): observed | binding to HNF-4α (coprecipitation with anti-HNF-4α antibody) (human HNF-4α): coprecipitated
